Experiments:
[1] = target: T1, receptor for activated C kinase (RACK1), endogenous, HT-1080 cells (human, UniProt P63244 1-317); assay: cell-based or functional assay
[2] = target: T1, receptor for activated C kinase …; assay: cell-based or functional assay; remark: listed apart in the source

RMWYNFDHNY [C2 peptide (RMWYNFDHNY)] was tested, and the “IC50 of doxorubicin, HT1080, MTT viability, C2 0.25 µM, 1% O2 (Experiment 2)” value [1] was 30.6 nM, the “IC50 of doxorubicin, HT1080, MTT viability, C2 0.25 µM, 21% O2 (Experiment 2)” value [1] was 11.7 nM and the “IC50 of doxorubicin, HT1080, MTT viability, C2 20.0 µM, 1% O2 (Experiment 2)” value [1] was 15.7 nM. The “IC50 of doxorubicin, HT1080, MTT viability, C2 20.0 µM, 21% O2 (Experiment 2)” value [1] was 10 nM, the “IC50 of doxorubicin, HT1080, MTT viability, C2 0.25 µM, 1% O2 (Experiment 1)” value [2] was 39.7 nM and the “IC50 of doxorubicin, HT1080, MTT viability, C2 0.25 µM, 21% O2 (Experiment 1)” value [2] was 12.2 nM. For the same binder, the “IC50 of doxorubicin, HT1080, MTT viability, C2 5.00 µM, 1% O2 (Experiment 1)” value [2] was 39.1 nM and the “IC50 of doxorubicin, HT1080, MTT viability, C2 5.00 µM, 21% O2 (Experiment 1)” value [2] was 17.2 nM.

With RMAANFDHNY [C2WY→AA peptide (RMAANFDHNY)] the “IC50 of doxorubicin, HT1080, MTT viability, C2WY→AA 0.25 µM, 1% O2 (Experiment 2)” value [1] was 98.9 nM, the “IC50 of doxorubicin, HT1080, MTT viability, C2WY→AA 0.25 µM, 21% O2 (Experiment 2)” value [1] was 12.5 nM and the “IC50 of doxorubicin, HT1080, MTT viability, C2WY→AA 20.0 µM, 1% O2 (Experiment 2)” value [1] was 74.3 nM. For the same binder, the “IC50 of doxorubicin, HT1080, MTT viability, C2WY→AA 20.0 µM, 21% O2 (Experiment 2)” value [1] was 10.9 nM, the “IC50 of doxorubicin, HT1080, MTT viability, C2WY→AA 0.25 µM, 1% O2 (Experiment 1)” value [2] was 99.1 nM and the “IC50 of doxorubicin, HT1080, MTT viability, C2WY→AA 0.25 µM, 21% O2 (Experiment 1)” value [2] was 21.3 nM. The “IC50 of doxorubicin, HT1080, MTT viability, C2WY→AA 5.00 µM, 1% O2 (Experiment 1)” value [2] was 76.4 nM and the “IC50 of doxorubicin, HT1080, MTT viability, C2WY→AA 5.00 µM, 21% O2 (Experiment 1)” value [2] was 16.4 nM.

From patent publication US20180353525A1 (SOCPRA SCIENCES SANT ET HUMAINES S E C, published 2018)
